Experimental data published in the DeepSol protein solubility set.

Test: soluble on expression in E. coli; label from the status in PepcDB or PDB records

Soluble on expression in E. coli, not soluble:
MGSDKIHHHHHHMSAIHIKYPALTFKAGQRALRHIRERGLQAADVGVLPGAAGGPKPLGIQGLDLALFGEWLPSAPRQRALIGASIGAWRFASACLDDPVAGIRRLGELYTEQDFAKGVTPAEISRSCQRMLDDLLEGRDGQLLANPHYRLNILVVKSHGQLAHDHRGRLGLGLGSVVASNLLGRSRLARHFERIILHDGRAAPPLDTLTDFPSRYLPLDLTNLRHALLASGSIPMVMQGVKDIPGAGAGTYRDGGLLDYHLDLPYRGDDLVLYPHFTDKVVPGWFDKALPWRKGDATRLQNVLLMTPSPQYLAALPYGKLPDRNDFKRFMGDAPGRKRYWYKAIAESQRLGDELLELTATGRLHERLQAL
MGSDKIHHHHHHMSDAMHTLLTASPLLDLHHPEIEALVARRDWLTLSPYDRIGAVYDFVRNEIAFGYNEGDELPASRVLADGIGQCNTKSTLLMALLRAVGIPCRFHGFTIDKPLQKGAITGLAYWLAPQRIIHSWVEVSLEGRWIALEGFILDAPYLASLQRRFPQARRFCGYGAATPDLSAPGVDWRGQDAYIQKEGIADDFGVFDSPDAFYARHGSNLSGVKRWLYERVIRHRMNRNVARVRASKW
MGSDKIHHHHHHMSDDELLFAEEDPSDNVGEGIGRAPWVILVVDDDTEVHALSRLLLSEIEFKGRRVAMYSAYSAAEARAMLGRIDDVAVILLDVVMETDDAGLKLVRTIRETMNNRDVRIILRTGQPGQAPEREVIETYDINDYKSKTELTAQKLHTALVAALRAYDDIMALVLSRQGLRKILDAAASLYRQRSMELFAAGVLTQINALLGGDRDGILCVQSRKEQADEDDPAGAMVVLAASGAYERLVGKRVDELPESPVISLIREAAASRTSRHGSHASALYMPTGDGRETVVFLHAAEPLKAQDRALMQLFCDNISAGFDTVCEIDDLRRENVRLRARLGEAKAP
MGSDKIHHHHHHMSDRLDEVDKRILYNLVRDARNTSAPDIADEVNVSAGTIRNRITHLEAAGIIRGYHAVVSYPQVGGRLTNLYICTSPVPDRDRLSKQVAEIPGVVSVRQLMKGRSNLHVTAVGDDMQELTRIANDLSAIGLDIEEENLLQSEEIRPYHEFGPDDSQDGHTIADFMELSGGAEVVELSVAADAEIAGHTLREANERGVIESDVLVVSIERDDEMLTPRGDTRVRPDDLVTVFCRGGISQETLSVFGKRGSATET
MGSDKIHHHHHHMSDSFDVLWLNASPILKRFDKPLLDYLSGYMRIAQWEYQQTKDEASSIDQAVELLHNFLEWRDRPVHLAGHGMSGAIALTFARRFPQKVRSLTLLSVAAQPANNWQAHYYFQRQLFSISRELVLASTVRSLFGNQPPHTTKKLVAALDKDLEQSPSQHSLFKLVYLPKGGVSMPMMVCGSKSDPVVNPTVLHDWLNWLKPEDKLWECPQGYHFFHYFYPQQVGEEILSFWKRHPSHLLEASALSFSTSTN
MGSDKIHHHHHHMSDTLTDSRIVYFYEAVRCGTIRAAADWLDVAPSAVSRQIGLLEKELDATLVERHARGVTPTDAGRCVIEYFREQLAHRDDLISRLQELRGLKTGQVSLVLGEGFVSDLLAGPMQQFCRQFPGIRVNLDVGSTNDVIRKISNDEGEIGLVYNPPAEPKLVSRASKRQPMMAIVGPDFPRRSHKVLTVQQLATYPMAATHPSYGTRQMMEAVEYAERVRLAPIITTNSFAILKEFVKSGLGISVMPAFAVAAELQAKELFAIEIAHPILENAEAHMVTRVGRKLSVAANKMLQMMTGQMRAFR
MGSDKIHHHHHHMSDVNASLVDGKKILVTGGAGFIGCAISERLAARASRYVVMDNLHPQIHASAVRPGALHEKAELVVADVTDAGAWDALLSDFQPEIIIHLAAETGTGQSLTEASRHALVNVVGTTRLTDALVKHGIVVEHILLTSSRAVYGEGAWQKDDGTIVYPGQRGRAQLEAAQWDFPGMTMLPSRADRTEPRPTSVYGATKLAQEHVLRAWSLATKTPLSILRLQNVYGPGQSLTNSYTGIVALFSRLAREKKVIPLYEDGNVTRDFVSIDDVADAIVATLVRTPEALSLFDIGSGQATSILDMARIIAAHYGAPEPQINGAFRDGDVRHAACDLSESLANLGWKPQWSLKRGIGELQTWIAQELDRKN
MGSDKIHHHHHHMSDYYKTYDLKHVINASGKMTILGVSKVPEVAIQAQQFGDTHFFEIKDLVDKTGAYIAKKLGTEGAVVVNSASAGIAEAVAGIIGQGSKYHAYHPFSPRFTKREIILPKGQNVDYGTPEEVMIELGGGQVVEAGYANMCTPEHIEMMITEQTAAIFYVKSHHAVQKSMLTIPEALEVAHKHDLPLILDAAAEEDLKKYVDLGVDVVLFSGAKAIEGPASGLVFGKEPYIGWTKLQSLGIGRAMKIGKENILGFTTALIHYLDNGPESGDAMKARLHPFVAALNEVPHLNVKEVQDGAGRPIFRAAVTVEATSPNNAKQVTAELKAGDPAIYTREYRANEGIIEFDIRAVDQAEMDLIVTRLKEILA
MGSDKIHHHHHHMSEALNVDIQEIAKFEKMAATWWDPDGEFKPLHQLNPLRLNYIDQTSGGLFGKKVLDVGCGGGILSESMARLGANVTGIDMGNEPLEVARLHALETGVSLNYERCTAEEHREVNREAYDVVTCMEMLEHVPDPLSVIAACCDMVKPGGYVFFSTINRNLRSYVETILGAEYLLKMLPVGTHDHGKFIRPSELIAMVDQTELLCKDATGVTYNPITGTFRYTSSVEVNYMIATVKPLE
MGSDKIHHHHHHMSEFDAIFVGAGHNSLACAAHLALKGWKTGIFERSSTIGGAVQTREFTLPGFRHDFGAMNLSLFAGSAFHRKYANELKTQGLEFAPVADCFASAFPDGRWFGVSNDLEKTASRMAAFSAADAATWRKLVAAFPGEAEHLFRLLGSPMSARALAGTAWNLWRKKGVAGALDTGRLLLSSPRTWLEETFESPYVRATLATWGMHLDFAPDIAGGAVFPYLESMANQSFGMVLGKGGADTIIRALAGMVTSAGGKIVTGAEVSEITVSNGKATGVRLTSGETHTATKAVIAGVAPKALTGTLLPGGSGNAGFDTAMKKFRYAPGTMMIHLALDELPGWRAGSELRQFAYVHLSPSLDAMSRTYQQAMAGMLPDEPVLVVGQPTAIDPSRAPQGKHVLWVQVRMLPAEITGDAGGKIAPAHWDQVKDAYAERVLDIIETYAPGLRSKILGRSVFSPIDLERENPNLVGGDQVCGSHHLAQNFLFRPARGYAGWNTPVGNLHLTGAATWPGAGTGAASGFMLAQQLGGR
MGSDKIHHHHHHMSENPIDAFIPEDIRDLYEIHNYRNAAQVLATGCPNEFQEIIEALRVFRLTLADIRKPGGNESDIPKRISGLLRAKGWMETRIKGDLLITKVSGTIDKNLGEKDLEGMEENESDTLEKIEELKNKGQVERIVRENFLDGHKVDYVKKRVAFDLEWNSKDQTFDRDLYAFRAFHECDLIDAAILLTRSASLNAVFEKLGPELNSDGTPKTSKNGKPKLIKTKYGASTTWMGKLLYRLNACRHGGCPVLALGITPNLITDWAEYESKNT
MGSDKIHHHHHHMSFDNLCKLLSEKHPATFASWVLGTPQTSVKVLKTELSIEPIRADYVTFLQLQGRILHLEFQTKLESTPPLPLRMLDYWVRLYRLYRLPITQVVVLLLPPAPGTVIETVFCVETTRHEYRVIRLWEENPELFLNEPALLPLAPLAATTQPQALLQQVVGKVNQLEPRQRPEISAYTQILAGLKYNQDLIRQLFREGMMRESVIYQEILAEGEQLGELRGRKAEGQLLILRQLTRRVGELPQEMLNRIETLSLEQLENLGEALLDFQAIADLEAWFGTLDIGVKMT
MGSDKIHHHHHHMSFLQEINLKLDVFEGPLDLLLHLIQKLEIDIYDIPITAVTEQYMSYIHAMQTLELEVAGEYLVMAATLMAIKSQMLLPKQELEIIDDEDFFEEEDPREALVAQLLEYRKFKYAATVLHEKEEERKLYYTKEPMDMDDYKEEDTTLPPNQINTIDLFLAFHAMLEKKKNRQPVETTVASDDVSIEEKISAISERMRQVQKGKAVSFDSFFDSYSKQEIVTTFMALLELMKTGAIYAEQENNYSEILLFNTETQQEDTTEVEETQ
MGSDKIHHHHHHMSGIRLVRAKITYLHDSCTFNFINENMSVKLLWSVPYRGDRMITYESVYPIQSKDVAKLIITKVRNNPKTLSVFDRSINGKTLFIGYLEYSDNSPFYLSNRVGTIFYDEYTGTGGDVISMITTADNFDLIREDLSVYGKIVHRQVQEIEAESINGPPRLTEMQEKVLRNAFEMGFFNYPKDVHLKDIAQKIGVSAVSVDQYLREAQRKLIRAYLNG
